Results published in article doi:10.1101/2024.05.25.595884 (bioRxiv, 2024).

B1: Trastuzumab scFab HCDR3 variant clone H3_72 (Fab, V domains shown)
VH: EVQLVESGGGLVQPGGSLRLSCAASGFNIKDTYIHWVRQAPGKGLEWVARIYPTNGYTRYADSVKGRFTISADTSKNTAYLQMNSLRAEDTAVYYCSRWRGKGFTAMDYWGQGTLVTVSS
VL: not shown
B2: Trastuzumab scFab HCDR3 variant clone H3_29 (Fab, V domains shown)
VH: EVQLVESGGGLVQPGGSLRLSCAASGFNIKDTYIHWVRQAPGKGLEWVARIYPTNGYTRYADSVKGRFTISADTSKNTAYLQMNSLRAEDTAVYYCSRWRSIGFYAMDYWGQGTLVTVSS
VL: not shown
B3: Trastuzumab scFab HCDR3 variant clone H3_85 (Fab, V domains shown)
VH: EVQLVESGGGLVQPGGSLRLSCAASGFNIKDTYIHWVRQAPGKGLEWVARIYPTNGYTRYADSVKGRFTISADTSKNTAYLQMNSLRAEDTAVYYCSRWGRHGFNAMDYWGQGTLVTVSS
VL: not shown
B4: Trastuzumab scFab HCDR3 variant clone H3_77 (Fab, V domains shown)
VH: EVQLVESGGGLVQPGGSLRLSCAASGFNIKDTYIHWVRQAPGKGLEWVARIYPTNGYTRYADSVKGRFTISADTSKNTAYLQMNSLRAEDTAVYYCSRWRRKGFYAMDYWGQGTLVTVSS
VL: not shown
B5: Trastuzumab scFab HCDR2/HCDR3 cross-combination clone H2/3_03 (Fab, V domains shown)
VH: EVQLVESGGGLVQPGGSLRLSCAASGFNIKDTYIHWVRQAPGKGLEWVARIKPANGYTRYADSVKGRFTISADTSKNTAYLQMNSLRAEDTAVYYCSRWRSIGFYAMDYWGQGTLVTVSS
VL: not shown
B6: Trastuzumab scFab HCDR2/HCDR3 cross-combination clone H2/3_07 (Fab, V domains shown)
VH: EVQLVESGGGLVQPGGSLRLSCAASGFNIKDTYIHWVRQAPGKGLEWVARIRPVRGYTRYADSVKGRFTISADTSKNTAYLQMNSLRAEDTAVYYCSRWRSIGFYAMDYWGQGTLVTVSS
VL: not shown
B7: Trastuzumab scFab HCDR2 variant IRPVRG (Fab, V domains shown)
VH: EVQLVESGGGLVQPGGSLRLSCAASGFNIKDTYIHWVRQAPGKGLEWVARIRPVRGYTRYADSVKGRFTISADTSKNTAYLQMNSLRAEDTAVYYCSRWGGDGFYAMDYWGQGTLVTVSS
VL: not shown

Each binder was assayed against full-length human HER2 with enhanced green fluorescent protein (eGFP) at the C-terminal end (Homo sapiens, UniProt P04626) (assay: SPID).
B1: binds.
B2: binds.
B3: binds.
B4: binds.
For B5, the Kd was < 1 nM and the “fold enhancement in affinity compared to the original Trastuzumab” value was 6 fold.
In the case of B6, the Kd is reported as < 1 nM and the “fold enhancement in affinity compared to the original Trastuzumab” value is reported as 6 fold.
A Kd of 2.6 nM was found for B7 in this work.
